This test deals with MSH2-MSH3 (purified heterodimer) (human, UniProt P43246 1-934; P20585 1-1137). Put plainly: native gel or EMSA. A general note: In EMSA bound probe runs differently from free probe, usually more slowly.
Chain of MSH2-MSH3 (purified heterodimer) (P43246 whole entry, chain 1 of 2): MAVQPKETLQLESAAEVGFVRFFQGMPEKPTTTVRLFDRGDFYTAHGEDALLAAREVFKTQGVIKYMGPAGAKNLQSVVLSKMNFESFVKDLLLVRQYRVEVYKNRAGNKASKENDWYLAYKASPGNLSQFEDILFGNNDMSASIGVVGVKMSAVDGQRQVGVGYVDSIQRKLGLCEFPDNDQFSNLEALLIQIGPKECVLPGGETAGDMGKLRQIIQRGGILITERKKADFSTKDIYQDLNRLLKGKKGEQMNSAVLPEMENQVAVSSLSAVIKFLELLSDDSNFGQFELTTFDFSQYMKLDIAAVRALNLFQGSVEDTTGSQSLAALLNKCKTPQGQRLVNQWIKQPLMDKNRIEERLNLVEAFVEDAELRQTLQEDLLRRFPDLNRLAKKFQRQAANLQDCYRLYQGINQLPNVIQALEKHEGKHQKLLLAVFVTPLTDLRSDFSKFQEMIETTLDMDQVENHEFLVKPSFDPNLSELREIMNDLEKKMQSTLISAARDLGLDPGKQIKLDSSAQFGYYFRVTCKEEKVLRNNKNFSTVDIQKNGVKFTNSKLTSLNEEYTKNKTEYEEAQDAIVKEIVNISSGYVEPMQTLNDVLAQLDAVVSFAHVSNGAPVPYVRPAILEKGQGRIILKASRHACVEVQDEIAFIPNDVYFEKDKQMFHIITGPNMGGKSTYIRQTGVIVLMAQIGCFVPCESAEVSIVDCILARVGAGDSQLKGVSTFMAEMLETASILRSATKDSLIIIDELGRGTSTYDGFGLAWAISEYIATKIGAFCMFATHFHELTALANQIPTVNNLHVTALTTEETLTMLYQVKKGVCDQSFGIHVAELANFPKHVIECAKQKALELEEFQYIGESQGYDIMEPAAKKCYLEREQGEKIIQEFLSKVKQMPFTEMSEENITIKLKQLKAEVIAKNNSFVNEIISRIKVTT
Chain of MSH2-MSH3 (purified heterodimer) (P20585 whole entry, chain 2 of 2): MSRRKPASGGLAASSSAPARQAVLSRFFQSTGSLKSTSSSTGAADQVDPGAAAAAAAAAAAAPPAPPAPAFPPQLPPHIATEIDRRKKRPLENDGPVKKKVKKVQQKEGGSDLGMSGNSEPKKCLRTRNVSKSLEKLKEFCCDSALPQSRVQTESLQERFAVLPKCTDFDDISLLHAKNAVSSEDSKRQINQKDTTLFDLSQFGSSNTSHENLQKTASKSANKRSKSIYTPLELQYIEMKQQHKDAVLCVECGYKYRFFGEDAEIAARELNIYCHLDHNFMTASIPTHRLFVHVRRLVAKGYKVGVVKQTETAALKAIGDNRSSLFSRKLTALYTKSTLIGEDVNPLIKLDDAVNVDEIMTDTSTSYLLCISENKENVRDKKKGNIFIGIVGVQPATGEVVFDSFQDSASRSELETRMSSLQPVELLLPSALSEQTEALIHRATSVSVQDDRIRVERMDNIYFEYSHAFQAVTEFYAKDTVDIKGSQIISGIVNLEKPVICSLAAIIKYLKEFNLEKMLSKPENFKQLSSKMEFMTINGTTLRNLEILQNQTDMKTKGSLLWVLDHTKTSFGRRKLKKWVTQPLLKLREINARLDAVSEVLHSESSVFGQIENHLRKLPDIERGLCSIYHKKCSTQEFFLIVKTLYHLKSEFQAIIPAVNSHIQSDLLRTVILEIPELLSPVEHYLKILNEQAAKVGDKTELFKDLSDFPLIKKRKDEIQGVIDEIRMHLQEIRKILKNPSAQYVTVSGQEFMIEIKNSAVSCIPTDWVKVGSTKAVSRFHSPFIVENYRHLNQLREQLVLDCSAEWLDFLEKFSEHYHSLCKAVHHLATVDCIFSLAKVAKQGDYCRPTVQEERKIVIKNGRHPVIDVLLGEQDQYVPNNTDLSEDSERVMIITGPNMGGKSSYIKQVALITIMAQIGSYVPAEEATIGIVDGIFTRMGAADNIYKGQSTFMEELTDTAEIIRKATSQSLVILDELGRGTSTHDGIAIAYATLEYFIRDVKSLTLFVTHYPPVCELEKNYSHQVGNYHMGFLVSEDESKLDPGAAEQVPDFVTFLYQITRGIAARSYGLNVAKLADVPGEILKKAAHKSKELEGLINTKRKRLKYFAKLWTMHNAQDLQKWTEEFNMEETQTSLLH

B1: SMARCAD1 (purified) (enzyme, human, UniProt Q9H4L7 1-1026, looked up)
chain: MNLFNLDRFRFEKRNKIEEAPEATPQPSQPGPSSPISLSAEEENAEGEVSRANTPDSDITEKTEDSSVPETPDNERKASISYFKNQRGIQYIDLSSDSEDVVSPNCSNTVQEKTFNKDTVIIVSEPSEDEESQGLPTMARRNDDISELEDLSELEDLKDAKLQTLKELFPQRSDNDLLKLIESTSTMDGAIAAALLMFGDAGGGPRKRKLSSSSEPYEEDEFNDDQSIKKTRLDHGEESNESAESSSNWEKQESIVLKLQKEFPNFDKQELREVLKEHEWMYTEALESLKVFAEDQDMQYVSQSEVPNGKEVSSRSQNYPKNATKTKLKQKFSMKAQNGFNKKRKKNVFNPKRVVEDSEYDSGSDVGSSLDEDYSSGEEVMEDGYKGKILHFLQDASIGELTLIPQCSQKKAQKITELRPFNSWEALFTKMSKTNGLSEDLIWHCKTLIQERDVVIRLMNKCEDISNKLTKQVTMLTGNGGGWNIEQPSILNQSLSLKPYQKVGLNWLALVHKHGLNGILADEMGLGKTIQAIAFLAYLYQEGNNGPHLIVVPASTIDNWLREVNLWCPTLKVLCYYGSQEERKQIRFNIHSRYEDYNVIVTTYNCAISSSDDRSLFRRLKLNYAIFDEGHMLKNMGSIRYQHLMTINANNRLLLTGTPVQNNLLELMSLLNFVMPHMFSSSTSEIRRMFSSKTKSADEQSIYEKERIAHAKQIIKPFILRRVKEEVLKQLPPKKDRIELCAMSEKQEQLYLGLFNRLKKSINNLEKNTEMCNVMMQLRKMANHPLLHRQYYTAEKLKEMSQLMLKEPTHCEANPDLIFEDMEVMTDFELHVLCKQYRHINNFQLDMDLILDSGKFRVLGCILSELKQKGDRVVLFSQFTMMLDILEVLLKHHQHRYLRLDGKTQISERIHLIDEFNTDMDIFVFLLSTKAGGLGINLTSANVVILHDIDCNPYNDKQAEDRCHRVGQTKEVLVIKLISQGTIEESMLKINQQKLKLEQDMTTVDEGDEGSMPADIATLLKTSMGL
Take B1: the binding result is “binds”.

These data come from article doi:10.1101/2021.04.23.441074 (bioRxiv, 2021).
